# Reference: US20090054327A1
# pKd: −log10 of the molar value.
# Assays:
# [1] = molecular target: actin filaments; assay: F-actin high-speed co-sedimentation, direct comparison with dystrophin
# [2] = molecular target: actin filaments; assay: F-actin high-speed co-sedimentation
extent of lateral association with actin filaments (stoichiometry) (actin monomers per utrophin molecule) [1],Bmax (actin monomers per dystrophin molecule) [2],pKd [2],Substance
14,,,full-length recombinant utrophin (from UniProt G3V7L1 1-3418)
,24,6.40,recombinant full-length mouse dystrophin (from UniProt P11531 1-3678)
